Experimental findings from doi:10.1101/2022.07.22.500997 (bioRxiv, 2022) are described below.

For data set [1], the target named is Dg_(GH172a) (HMPREF9455_02467), DUF2961 / GH172 exo-D-arabinofuranosidase from Dysgonomonas gadei (Dysgonomonas gadei) (UniProt F5IZF0). As to the kind of experiment: SEC-MALS. For orientation: In gel filtration, larger molecules generally elute earlier.
Data set [2] deals with Dg_(GH172b) (HMPREF9455_02471), DUF2961 / GH172 exo-D-arabinofuranosidase from Dysgonomonas gadei (Dysgonomonas gadei) (UniProt F5IZF4). As to the kind of experiment: SEC-MALS.
For data set [3], the target named is Dg_(GH172c) (HMPREF9455_02479), DUF2961 / GH172 exo-D-arabinofuranosidase from Dysgonomonas gadei (Dysgonomonas gadei) (UniProt F5IZG2). As to the kind of experiment: crystal structure.
For data set [4] the target is unchanged. As to the kind of experiment: SEC-MALS.
Data set [5] concerns the target Myc_(GH172) (GII36_05205), DUF2961 / GH172 enzyme from Candidatus Mycosynbacter amalyticus (Candidatus Mycosynbacter amalyticus). As to the kind of experiment: SEC-MALS.
Data set [6] concerns the molecule itself. As to the kind of experiment: SEC-MALS.

For orientation: stoichiometry N means the number of molecules, sites or subunits per partner or assembly. In turn, “Dg_(GH172a) (HMPREF9455_02467), DUF2961 / GH172 exo-D-arabinofuranosidase from Dysgonomonas gadei (from UniProt F5IZF0 1-386) (enzyme)” displayed a stoichiometry N in data set [1] of 12.

Take “Dg_(GH172b) (HMPREF9455_02471), DUF2961 / GH172 exo-D-arabinofuranosidase from Dysgonomonas gadei (from UniProt F5IZF4 1-643) (enzyme)”: in data set [2], the stoichiometry N was 2.

Turning to “Dg_(GH172c) (HMPREF9455_02479), DUF2961 / GH172 exo-D-arabinofuranosidase from Dysgonomonas gadei (from UniProt F5IZG2 1-402) (enzyme)”, the stoichiometry N in data set [3] and in data set [4] was 6 each time.

In the case of “Myc_(GH172) (GII36_05205), DUF2961 / GH172 enzyme from Candidatus Mycosynbacter amalyticus”, the stoichiometry N in data set [5] was determined as 3.

B1: Noc_(GH172) (O3I_017420), DUF2961 / GH172 enzyme from Nocardia brasiliensis (enzyme)
chain: MTPPRRSELWLLDDTRTRSVSAENPTGAPGGGARATTGTGAHAARLLGPGWKISPSIVLGDGETATLADVSGPGVLRHCWLTTDRAALRELTLRMYWDDAAEPAIDVPLGDFFCNGWDELALVDSEMVVVAPAGGLNSYWPMPFRRRARITLENHCGRSVPVYYQITYGEEDVPGEAGYLHARWSRSAPLGSPAVHTLLDTGPARGRYVGTYLAIRPGAPRWWGEGEMKFYLDGDDEYPTLCGTGTEDYFGGAWNFDMDGKYRTYSTAYLGLPQALPADEIYQAHQRFGMYRWHVHDPICFHRELRVTVQGLGWRDSDTYLPLEDAEIATTVWWYQEVPPSG
For B1, the “stoichiometry N” value in data set [6] was 3.
